How the values were obtained:
[1] = target: Zika virus NS5 Y25A/K28S/K29A variant, full length, C-terminal 6xHis tag (Zika virus (Suriname human isolate Z1106033))
[2] = target: Zika virus NS5, full length, wild type (Suriname ZIKV human isolate Z1106033), C-terminal 6xHis tag (Zika virus (Suriname human isolate Z1106033)); assay: SEC-MALS; Superdex 200 10/300 GL; 50 mM HEPES pH 7.0, 500 mM NaCl, 10% glycerol, 5 mM DTT; monomer-dimer
[3] = target: Zika virus NS5, full length, wild type (Suriname ZIKV human isolate Z1106033), C-terminal 6xHis tag (Zika virus (Suriname human isolate Z1106033)); assay: SEC-MALS; Superdex 200 10/300 GL; 50 mM MES pH 6.0, 500 mM NaCl, 10% glycerol, 5 mM DTT; monomer-dimer
[4] = target: Zika virus NS5, full length, wild type (Suriname ZIKV human isolate Z1106033), C-terminal 6xHis tag (Zika virus (Suriname human isolate Z1106033)); assay: AUC; sedimentation velocity, 20 °C, 43,000 rpm, 0.5 mg/ml protein; 50 mM HEPES pH 7.0, 500 mM NaCl, 5% glycerol, 0.4 mM DTT
[5] = target: Zika virus NS5, full length, wild type (Suriname ZIKV human isolate Z1106033), C-terminal 6xHis tag (Zika virus (Suriname human isolate Z1106033)); assay: SAXS; 6 mg/ml NS5 (highest concentration); 50 mM MES pH 6.0, 500 mM NaCl, 10% glycerol, 5 mM DTT; 10 °C

Zika virus NS5 Y25A/K28S/K29A variant, full length, C-terminal 6xHis tag (natural protein)
RNA primer extension (polymerase elongation) activity at 900, 180, 18, 9 nM enzyme, variant against wild type NS5 [1]: 3 fold

Zika virus NS5, full length, wild type (Suriname ZIKV human isolate Z1106033), C-terminal 6xHis tag (from UniProt A0A024B7W1 2521-3423) (natural protein)
percent abundance of the dimer peak [2]: 10.4%
stoichiometry N [2]: 2
percent of the sample mass in the dimer peak [3]: 4%
stoichiometry N [3]: 2
percent abundance of the dimer species [4]: 12%
percent of the sample as oligomer [4]: 5.1%
stoichiometry N [4]: 2
stoichiometry N [5]: 2
